Test results: article PMC6009650

What was measured:
[1] = target: E. coli RNAP core enzyme carrying a hexahistidine-tagged β’ subunit (E. coli) (UniProt P0A8T7)
[2] = target: E. coli RNAP core enzyme carrying a hexahistidine-tagged β’ subunit (E. coli) (UniProt P0A8T7); remark: listed apart in the source

UniProt P0A8T7, sequence (P0A8T7 whole entry, looked up): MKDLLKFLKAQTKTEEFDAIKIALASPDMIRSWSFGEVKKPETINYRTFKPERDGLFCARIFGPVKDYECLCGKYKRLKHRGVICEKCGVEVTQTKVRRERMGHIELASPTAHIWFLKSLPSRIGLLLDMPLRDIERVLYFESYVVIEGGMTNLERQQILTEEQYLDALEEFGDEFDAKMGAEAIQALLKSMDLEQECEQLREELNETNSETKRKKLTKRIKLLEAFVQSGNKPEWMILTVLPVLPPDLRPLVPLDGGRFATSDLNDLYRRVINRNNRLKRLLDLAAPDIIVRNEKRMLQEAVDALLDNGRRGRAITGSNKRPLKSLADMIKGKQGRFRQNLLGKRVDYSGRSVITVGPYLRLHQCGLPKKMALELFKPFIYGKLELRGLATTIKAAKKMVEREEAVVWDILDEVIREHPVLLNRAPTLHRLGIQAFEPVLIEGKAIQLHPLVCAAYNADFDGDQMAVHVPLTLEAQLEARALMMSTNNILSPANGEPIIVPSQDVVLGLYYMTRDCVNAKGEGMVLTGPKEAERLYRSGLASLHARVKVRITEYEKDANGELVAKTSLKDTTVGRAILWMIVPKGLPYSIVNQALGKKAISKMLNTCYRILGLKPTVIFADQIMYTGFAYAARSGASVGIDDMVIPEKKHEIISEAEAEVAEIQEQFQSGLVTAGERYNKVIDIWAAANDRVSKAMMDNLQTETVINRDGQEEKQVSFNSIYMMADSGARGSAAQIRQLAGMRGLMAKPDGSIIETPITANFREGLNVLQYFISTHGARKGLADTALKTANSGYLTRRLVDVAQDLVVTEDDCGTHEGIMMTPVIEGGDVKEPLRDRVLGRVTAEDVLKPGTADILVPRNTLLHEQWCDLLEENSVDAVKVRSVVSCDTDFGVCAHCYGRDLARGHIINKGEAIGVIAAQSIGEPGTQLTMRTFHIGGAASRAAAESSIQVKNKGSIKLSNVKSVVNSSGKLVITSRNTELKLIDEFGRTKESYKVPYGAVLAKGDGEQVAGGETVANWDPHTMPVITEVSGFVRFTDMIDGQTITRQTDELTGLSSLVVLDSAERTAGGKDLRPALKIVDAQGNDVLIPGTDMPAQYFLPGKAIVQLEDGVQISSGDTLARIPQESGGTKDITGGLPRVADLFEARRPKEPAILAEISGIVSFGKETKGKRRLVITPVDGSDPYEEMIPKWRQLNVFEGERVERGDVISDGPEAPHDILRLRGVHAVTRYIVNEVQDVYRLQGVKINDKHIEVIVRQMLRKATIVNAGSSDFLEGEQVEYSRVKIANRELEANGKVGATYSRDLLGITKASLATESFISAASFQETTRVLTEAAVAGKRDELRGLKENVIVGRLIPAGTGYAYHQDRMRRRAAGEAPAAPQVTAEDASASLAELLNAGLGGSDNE

B1: Nun protein of HK022 phage (natural protein)
chain: VKKTIYVNPDSGQNRKVSDRGLTSRDRRRIARWEKRIAYALKNGVTPGFNAIDDGPEYKINEDPMDKVDKALATPFPRDVEKIEDEKYEDVMHRVVNHAHQRNPNKKWS
Question: Which apparent pyrophosphorolysis rate of TEC U10 after pre-incubation with 1 μM Nun (0.21 s^-1 without Nun); 2.5 mM PPi, 5 mM MgCl2 [1] does the source give for B1 here?
Answer: Its apparent pyrophosphorolysis rate of TEC U10 after pre-incubation with 1 μM Nun (0.21 s^-1 without Nun); 2.5 mM PPi, 5 mM MgCl2 is 2.4 s⁻¹.

Question: And the apparent Vmax of pyrophosphorolysis of TEC U10 with 1 μM Nun (15.7 min^-1 without Nun); [PPi] 10 μM to 2.5 mM [2]?
Answer: The apparent Vmax of pyrophosphorolysis of TEC U10 with 1 μM Nun (15.7 min^-1 without Nun); [PPi] 10 μM to 2.5 mM was 160 min⁻¹.
